Molecular target: Rabbit SA (rabbit) (UniProt P49065)
Assay: competition ELISA (SA08b binding to rabbit albumin)

Chain of Rabbit SA (rabbit) (P49065 25-608): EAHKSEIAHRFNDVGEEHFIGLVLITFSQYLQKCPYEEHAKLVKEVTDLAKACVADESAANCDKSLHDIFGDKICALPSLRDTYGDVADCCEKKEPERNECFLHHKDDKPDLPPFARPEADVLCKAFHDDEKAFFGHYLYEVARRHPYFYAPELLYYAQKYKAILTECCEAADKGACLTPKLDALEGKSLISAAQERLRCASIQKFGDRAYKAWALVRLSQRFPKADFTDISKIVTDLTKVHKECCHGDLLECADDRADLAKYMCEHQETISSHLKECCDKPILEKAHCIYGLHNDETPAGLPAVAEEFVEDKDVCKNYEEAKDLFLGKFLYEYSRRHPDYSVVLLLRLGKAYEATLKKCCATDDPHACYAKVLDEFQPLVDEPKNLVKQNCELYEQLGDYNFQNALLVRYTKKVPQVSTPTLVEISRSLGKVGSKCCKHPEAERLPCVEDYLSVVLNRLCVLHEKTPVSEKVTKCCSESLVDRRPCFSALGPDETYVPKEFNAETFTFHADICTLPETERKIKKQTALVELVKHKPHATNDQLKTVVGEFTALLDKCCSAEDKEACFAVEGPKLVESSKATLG

IC50: 10 nM
Substance: dia4D5

— patent publication US20070202045A1
